Assay results published in patent US9587002B2, “Sequence of nucleotides and peptides GSE 24.2 of dyskerin, which can induce telomerase activity, method for obtaining same, therapeutic compositions and applications thereof” (CONSEJO SUPERIOR DE INVESTIGACIONES CIENTIFICAS, priority 2005, dated 2017).
“Also recorded” adds a separate entry of the source.

Assays:
[1] = tested on: hTERT; assay: RT-PCR of hTERT in cells of patients with dyskeratosis congenita; assay type: cell-based, human; conditions: RT-PCR 24 hours after transfection
Method: FIG. 10.—Telomerase activity and expression levels of hTERT and hTR in the cells of patients with dyskeratosis congenita and in VA13 cells transiently transfected with the 24.2 plasmid or the pLNCX empty vector. A) Telomerase activity measured by means of the TRAP assay in the cells of patients with dyskeratosis congenita (DC-1, DC-2 and DC-3) and in the carrier parent (DC-C) following electroporation of 45 μg of the pLNCX empty plasmid (−) or the pLNCX 24.2 vector (+) by 15 million cells. B) RT-PCR of the RNA from cells of one of the patients with dyskeratosis congenita, DC3 transfected with the empty vector and DC3 transfected with the 24.2 plasmid, using oligos specific for hTERT and hTR. As a starting RNA control, oligos for the amplification of GAPDH were used. C) Telomerase activity in VA13 cells. The cells were transiently transfected with 16 μg of the control pLNCX empty vector, expressing DKC or the GSE 24.2 peptide per million cells. 24 hours later, the telomerase activity was analysed as described above, using dilutions of the protein extracts from each transfection. D) The expression levels of hTERT and hTR in VA13 cells transfected with 16 μg of the different construct per million cells. RNA levels were detected as described above. GAPDH was used as a control. […] After 24 h of transfection, the luciferase activity was analyzed as described above. […]

[2] = tested on: hTERT promoter; assay: hTERT-luc reporter (luciferase) assay in 293T cells; assay type: cell-based, human
Method: FIG. 8.—Activity of the hTERT promoter in the 293T cell lines: pLNCX and 24.2 and in 293T cells transiently transfected with the pLNCX-24.2 construct and the pLNCX empty plasmid. A) Both the pLNCX and the 24.2 cells were transiently transfected with 0.25 μg of the hTERT-luc reporter vector. The cells were seeded in 60-mm plates. After 24 hours of transfection, the cells were lysed and the luciferase activity of 10 μg of total protein was quantified. As a transfection control, the cells were co-transfected with a reporter vector, CMV-Renilla. B) The 293T cells were transfected with the pLNCX vector and the 24.2 plasmid (5 μg), and both were co-transfected with 0.25 μg of the hTERT-luc reporter vector. After seeding the cells as in A, they were transfected with pLNCX and 24.2, and co-transfected with the hTERT-luc reporter vector; subsequently, they were treated as in A. As a transfection control, the CMV-Renilla reporter vector was used. The data correspond to the ratio of relative units of luciferase with respect to non-transfected cells. Each point represents the mean±the standard deviation obtained from 3 independent experiments. C) The 293T cells were transfected with the different GSE 24.4, DSK, TRUB I, TRUB II constructs and the pLNCX empty plasmid (5 μg), and co-transfected with 0.25 μg of the hTERT-luc reporter vector. The cells were seeded in 60-mm plates; after 24 hours of transfection, the cells were lysed and the luciferase activity of 10 μg of total protein was quantified. As a transfection control, the cells were co-transfected with a CMV-Renilla reporter vector. The data correspond to the ratio of relative units of luciferase with respect to non-transfected cells. Each point represents the mean±the standard deviation obtained from 3 independent experiments.
FIG. 9.—Activity of the hTERT promoter following treatment with cisplatin. A) Both the pLNCX cell line and the 24.2 cell line were transiently transfected with 0.25 μg of the hTERTIuc reporter vector. After 24 hours of transfection, they were treated with 3 μg/ml of cisplatin for 8 hours. The cells were seeded in 60-mm plates; after 24 hours of transfection and following treatment with cDDP, the cells were lysed and the luciferase activity of 10 μg of total protein was quantified. As a transfection control, the cells were co-transfected with a CMV-Renilla reporter vector. B) 293T cells which, after being transiently transfected with pLNCX and 24.2, were co-transfected with 0.25 μg of the hTERT-luc reporter vector and treated as in A. After seeding the cells as in A, they were transfected with pLNCX and 24.2, and co-transfected with the hTERT-luc reporter vector; subsequently, they were treated as in A. As a transfection control, the CMV-Renilla reporter vector was used. The data correspond to the ratio of relative units of luciferase with respect to non-transfected cells. Each point represents the mean±the standard deviation obtained from 3 independent experiments.
A) The 293T cells were co-transfected with different constructs (10 μg/DNA per million cells) and the hTERT-luc reporter (1 μg per million cells). The specified cell lines were co-transfected with the hTERT-luc reporter and different quantities of the Mad/myc expression vector. (B) The specified cell lines were co-transfected with the HIV-luc reporter and with different quantities of the Mad/myc expression vector. After 24 h of transfection, the cells were stimulated with 50 ng/ml of TNF-α for 6 hours and the luciferase activity was analysed as described above. CMV-Renilla (0.1 μg/ml per million cells) was used as a control for the transfection efficiency. The data represent the mean of two experiments performed in quadruplicate.
The pseudouridine synthase TRUB domain of dyskerin comprises two structural subdomains: the Trub I and II motifs (Zucchini et al., 2003). These two domains are critical to maintain the global protein structure of dyskerin. […]

B1: GSE 24.2: 165-pb cDNA fragment (nucleotides 268 to 433) of human dyskerin, SEQ ID NO1, encoding peptide SEQ ID NO2, expressed from pLNCX plasmid (nucleic acid, listed as Homo sapiens)
DNA: GGTTTCATTAATCTTGACAAGCCCTCTAACCCCTCTTCCCATGAGGTGGTAGCCTGGATTCGACGGATACTTCGGGTGGAGAAGACAGGGCACAGTGGTACTCTGGATCCCAAGGTGACTGGTTGTTTAATCGTGTGCATAGAACGAGCCACTCGCTTGGTGAAG
modifications: expressed from pLNCX plasmid; CDS (1)..(165) Sequence GSE 24.2
hTERT expression levels in dyskeratosis congenita cells [1]: an increase in the expression levels was observed | activity of the hTERT promoter, transient expression ([2]; 293T cells transiently transfected with construct vs empty vector, hTERT-luc, 24 hours): increases the activity of the hTERT promoter | hTERT promoter activity following cisplatin, transient expression ([2]; 293T transiently expressing GSE 24.2 vs pLNCX, 3 μg/ml cisplatin 8 hours): greater than the baseline activity | activity of the hTERT promoter, stable expression ([2]; pLNCX 24.2 cell line vs pLNCX, hTERT-luc, 24 hours): the activity of the hTERT promoter is greater; also recorded: increased the baseline activity of the telomerase promoter | induction of hTERT promoter activity following cisplatin, relative to pLNCX cells ([2]; stable pLNCX 24.2 cells, 3 μg/ml cisplatin for 8 hours): 4 times
